Molecular target: the molecule itself
Assay: SEC

B1: recombinant His-PIPKIγ (enzyme)
chain: MELEVPDEAESAEAGAVPSEAAWAAESGAAAGLAQKKAAPTEVLSMTAQPGPGHGKKLGHRGVDASGETTYKKTTSSTLKGAIQLGIGYTVGHLSSKPERDVLMQDFYVVESIFFPSEGSNLTPAHHFQDFRFKTYAPVAFRYFRELFGIRPDDYLYSLCNEPLIELSNPGASGSLFYVTSDDEFIIKTVMHKEAEFLQKLLPGYYMNLNQNPRTLLPKFYGLYCVQSGGKNIRVVVMNNILPRVVKMHLKFDLKGSTYKRRASKKEKEKSFPTYKDLDFMQDMPEGLLLDADTFSALVKTLQRDCLVLESFKIMDYSLLLGVHNIDQHERERQAQGAQSTSDEKRPVGQKALYSTAMESIQGGAARGEAIESDDTMGGIPAVNGRGERLLLHIGIIDILQSYRFIKKLEHTWKALVHDGDTVSVHRPSFYAERFFKFMSNTVFRKNSSLKSSPSKKGRGGALLAVKPLGPTAAFSASQIPSEREEAQYDLRGARSYPTLEDEGRPDLLPCTPPSFEEATTASIATTLSSTSLSIPERSPSETSEQPRYRRRTQSSGQDGRPQEEPPAEEDLQQITVQVEPACSVEIVVPKEEDAGVEASPAGASAAVEVETASQASDEEGAPASQASDEEDAPATDIYFFTDGRYWIYSPRHRRLRAVTLSASGTPTDERSWVYSPLHYSAQAPPASDGESDT
stoichiometry N: 2
